Substitutions are numbered along the chain they refer to. In names and notes the source's numbering stands.
B1: 208-TGAG for 208-YGGS (LRM): 208-TGAG for 208-YGGS loop 7 replacement mutation of TIM from chicken muscle (protein, UniProt P00940 2-248, looked up, variant Y208T G210A S211G)
Triosephosphate isomerase: APRKFFVGGNWKMNGDKKSLGELIHTLNGAKLSADTEVVCGAPSIYLDFARQKLDAKIGVAAQNCYKVPKGAFTGEISPAMIKDIGAAWVILGHSERRHVFGESDELIGQKVAHALAEGLGVIACIGEKLDEREAGITEKVVFEQTKAIADNVKDWSKVVLAYEPVWAIGTGKTATPQQAQEVHEKLRGWLKSHVSDAVAQSTRIITGAGVTGGNCKELASQHDVDGFLVGGASLKPEFVDIINAKH
B2: S211G (protein, UniProt P00942 2-248, looked up, variant S211G)
Triosephosphate isomerase: ARTFFVGGNFKLNGSKQSIKEIVERLNTASIPENVEVVICPPATYLDYSVSLVKKPQVTVGAQNAYLKASGAFTGENSVDQIKDVGAKWVILGHSERRSYFHEDDKFIADKTKFALGQGVGVILCIGETLEEKKAGKTLDVVERQLNAVLEEVKDWTNVVVAYEPVWAIGTGLAATPEDAQDIHASIRKFLASKLGDKAASELRILYGGGANGSNAVTFKDKADVDGFLVGGASLKPEFVDIINSRN
B3: wildtype: wildtype triosephosphate isomerase from Saccharomyces cerevisiae (yTIM) (protein, UniProt P00942 2-248, looked up)
Triosephosphate isomerase: B2 Triosephosphate isomerase with G210S
B4: Y208T (protein, UniProt P00942 2-248, looked up, variant Y208T)
Triosephosphate isomerase: B2 Triosephosphate isomerase with Y207T, G210S
B5: Y208S (protein, UniProt P00942 2-248, looked up, variant Y208S)
Triosephosphate isomerase: B2 Triosephosphate isomerase with Y207S, G210S
B6: Y208F: Y208F loop 7 mutant of yeast triosephosphate isomerase (protein, UniProt P00942 2-248, looked up, variant Y208F)
Triosephosphate isomerase: B2 Triosephosphate isomerase with Y207F, G210S
B7: Y208T/S211G (protein, UniProt P00942 2-248, looked up, variant Y208T S211G)
Triosephosphate isomerase: B2 Triosephosphate isomerase with Y207T
B8: Y208A (protein, UniProt P00942 2-248, looked up, variant Y208A)
Triosephosphate isomerase: B2 Triosephosphate isomerase with Y207A, G210S
B9: S211A (protein, UniProt P00942 2-248, looked up, variant S211A)
Triosephosphate isomerase: B2 Triosephosphate isomerase with G210A
B10: Y16F: Y16F mutant of ketosteroid isomerase (KSI) from Pseudomonas putida (protein, UniProt P07445 1-131, looked up, variant Y16F)
Steroid Delta-isomerase: MNLPTAQEVQGLMARFIELVDVGDIEAIVQMYADDATVEDPFGQPPIHGREQIAAFYRQGLGGGKVRACLTGPVRASHNGCGAMPFRVEMVWNGQPCALDVIDVMRFDEHGRIQTMQAYWSEVNLSVREPQ

What was measured:
[1] = test system: TIM from chicken muscle; settings: chicken muscle TIM loop replacement mutant; pH 7.5, 25 °C; cited from earlier work
[2] = test system: TIM from chicken muscle; settings: cited from earlier work
[3] = test system: TIM from chicken muscle; settings: chicken muscle TIM loop replacement mutant; pH 7.5, 25 °C; cited from earlier work; remark: listed apart in the source
[4] = test system: Triosephosphate Isomerase from Yeast; type: biochemical, Saccharomyces cerevisiae; settings: for GAP kcat: 30 mM triethanolamine pH 7.5, 25 °C
[5] = test system: Triosephosphate Isomerase from Yeast; type: biochemical, Saccharomyces cerevisiae; settings: isomerization of DHAP; pH 7.5, 25 °C, I = 0.1 (NaCl)
[6] = molecular target: T1, Triosephosphate Isomerase from Yeast (Saccharomyces cerevisiae, UniProt P00942, Y208F); type: biochemical
T1 sequence (P00942 2-248 Y208F): B2 Triosephosphate isomerase with Y207F, G210S

[7] = test system: yTIM; type: biochemical, Saccharomyces cerevisiae; settings: unactivated deprotonation of glycolaldehyde
[8] = molecular target: T1, Triosephosphate Isomerase from Yeast; settings: isomerization of [l-^2H]-dihydroxyacetone phosphate; cited from earlier work
[9] = test system: ketosteroid isomerase (KSI) from Pseudomonas putida; settings: cited from earlier work
[10] = isomerization of GAP, I = 0.1 (NaCl)

Row | Molecule | GAP kcat [4, 10] [s^–1] | DHAP kcat [5] | further results
1 | B1 | – | – | DHAP kcat [1]: 8.0 s^–1; (kcat/Km)E•HPi/Kd ([2]; chicken muscle TIM loop replacement mutant, third-order rate constant): 95 M^–2 s^–1; effect of mutation on [(kcat/Km)E]obs: KC ([2]; chicken muscle TIM): no change; GAP kcat [3]: 16 s^–1
2 | B2 | 7500 ± 500 | 810 ± 10 s^–1 | activity relative to S211A TIM ([4]; S211G greater than S211A): 20 fold
3 | B3 | 8900 ± 700 | 860 ± 10 s^–1 | –
4 | B4 | 3700 ± 50 | 580 ± 10 s^–1 | –
5 | B5 | 940 ± 30 | 250 ± 5 s^–1 | –
6 | B6 | 13 ± 1 | 4.5 ± 0.3 s^–1 | reduction in enzyme activity compared to the Y208A and Y208S mutants [4]: ca. 50 fold; reduction in kcat implied by deviation from Figure 7 correlation ([6]; kcat for GAP vs Kd^⧧ correlation): 40 fold; negative deviation from the correlation in Figure 7 ([6]; log kcat for GAP vs intrinsic dianion binding energy): 1.6 log unit; decrease in (kcat/Km)E compared with wildtype [7]: 20 fold; primary deuterium kinetic isotope effect kH/kD on kcat/Km [8]: 6
7 | B7 | 520 ± 30 | 135 ± 5 s^–1 | GAP kcat/Km (upper value) ([4]; isomerization of GAP, pH 7.5, 25 °C, I = 0.1 (NaCl), calculated for total concentration of GAP): (7.3 ± 0.8) × 10^5 M^–1 s^–1; GAP kcat/Km (lower value) ([4]; isomerization of GAP, pH 7.5, 25 °C, calculated for the reactive carbonyl form, 4% of total GAP): 1.8 × 10^7 M^–1 s^–1; DHAP kcat/Km [5]: (3.4 ± 0.2) × 10^4 M^–1 s^–1
8 | B8 | 740 ± 10 | 210 ± 5 s^–1 | –
9 | B9 | 2800 ± 100 | linear plot | decrease in (kcat/Km)E compared with wildtype [7]: 30 fold
10 | B10 | – | – | falloff in activity [9]: 5000 fold; falloff in activity (decrease in kcat/Km) relative to that for Y16A, Y16G, Y16S and Y16T mutants [9]: ca. 100 fold

Reference: article PMC4694050 (Journal of the American Chemical Society, 2015)
